Reference: US5843460

Target: H. pylori urease (UreA and UreB subunits) expressed in E. coli from the urease gene cluster of pILL763 or pILL753 (Helicobacter pylori)

Row | Substance | urease activity (Berthelot reaction) of E. coli co-expressing the urease gene cluster and HspA plus HspB [fold]
1 | H. pylori HspA heat shock protein (GroES-like) | 3
2 | H. pylori HspB heat shock protein (GroEL-like) | 3
